Results as given in paper PMC3680461, “Diversity of Plant Methionine Sulfoxide Reductases B and Evolution of a Form Specific for Free Methionine Sulfoxide” (PLoS ONE, 2013).
Blank lines part the entries; values can stand above or below the molecule they belong to.

What was measured:
GmMSRB2 [1] = target: T1, GmMSRB2 (Glycine max, UniProt C6SXW1, C68S); experiment: DTT-dependent MSR activity; format: biochemical; settings: DTT as reductant
T1 construct: full-length, pDEST17 His-tag, E. coli BL21(DE3), purified; cytosolic (no signal peptide predicted)
T1 sequence (C6SXW1 1-138 C68S): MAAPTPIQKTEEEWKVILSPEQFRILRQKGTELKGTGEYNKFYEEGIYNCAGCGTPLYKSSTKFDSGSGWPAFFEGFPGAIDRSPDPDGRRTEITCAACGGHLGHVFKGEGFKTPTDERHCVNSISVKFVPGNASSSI

GmMSRB1 = target: T2, GmMSRB1 (Glycine max, UniProt C6TFD8); experiment: DTT-dependent MSR activity; format: biochemical; settings: DTT as reductant
T2 construct: without predicted N-terminal chloroplast signal peptide (predicted TP length 45), pET21b His-tag, E. coli BL21(DE3), purified
T2 sequence (C6TFD8 46-202): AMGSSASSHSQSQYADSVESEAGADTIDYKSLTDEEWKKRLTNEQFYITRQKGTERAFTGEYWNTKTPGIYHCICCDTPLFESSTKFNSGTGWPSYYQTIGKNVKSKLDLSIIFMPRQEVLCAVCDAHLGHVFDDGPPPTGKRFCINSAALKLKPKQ

GmMSRB4 = target: T3, GmMSRB4 (Glycine max, UniProt I1ME37); experiment: NADPH consumption, TRX-coupled; format: biochemical; settings: 25 µM yeast TRX2, 2 µM TRX reductase, 200 µM NADPH; S/R mixture used, Km given as half of measured value; read-out: Free L-MetO / Km (μM)^c
T3 construct: gene LOC100784622; without predicted N-terminal chloroplast signal peptide (predicted TP length 67), pET21b His-tag, E. coli BL21(DE3), purified
T3 sequence (I1ME37 68-204): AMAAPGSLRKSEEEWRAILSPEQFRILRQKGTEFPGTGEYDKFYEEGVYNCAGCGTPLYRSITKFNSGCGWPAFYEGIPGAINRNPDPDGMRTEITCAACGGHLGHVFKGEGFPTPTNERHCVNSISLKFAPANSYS
Excerpt: (§1) NADPH consumption, TRX-coupled on GmMSRB4

GmMSRB2 [2] = target: T4, GmMSRB2 (Glycine max, UniProt C6SXW1); experiment: NADPH consumption, TRX-coupled; format: biochemical; settings: 25 µM yeast TRX2, 2 µM TRX reductase, 200 µM NADPH; S/R mixture used, Km given as half of measured value; read-out: Free L-MetO / Km (μM)^c
T4 construct: full-length, pDEST17 His-tag, E. coli BL21(DE3), purified; cytosolic (no signal peptide predicted)
T4 sequence (C6SXW1 1-138): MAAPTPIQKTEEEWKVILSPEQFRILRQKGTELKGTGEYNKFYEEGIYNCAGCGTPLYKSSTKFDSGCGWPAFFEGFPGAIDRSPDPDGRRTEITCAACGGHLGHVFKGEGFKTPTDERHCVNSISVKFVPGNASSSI
Excerpt: (§2) NADPH consumption, TRX-coupled on GmMSRB2

[3] = substrate: CC(=O)N[C@@H](CC[S+](C)[O-])C(=O)O; experiment: NADPH consumption, TRX-coupled; format: biochemical, Glycine max; settings: 25 µM yeast TRX2, 2 µM TRX reductase, 200 µM NADPH
Excerpt: as §1

[4] = substrate: CC(=O)N[C@@H](CC[S+](C)[O-])C(=O)O; experiment: NADPH consumption, TRX-coupled; format: biochemical, Glycine max; settings: 25 µM yeast TRX2, 2 µM TRX reductase, 200 µM NADPH; remark: listed apart in the source
Excerpt: as §2

Molecule: CN(C)c1ccc(/N=N/c2ccc(S(=O)(=O)N[C@@H](CC[S@@+](C)[O-])C(=O)O)cc2)cc1 [dabsyl-MetO]
DTT-dependent MSR activity (GmMSRB2 [1]): the C68S GmMSRB2 mutant was active towards both protein-based and free MetO
DTT-dependent MSR activity (GmMSRB1): GmMSRB1 was two-fold more efficient than GmMSRB2 or GmMSRB4 in reducing dabsylated Met-R-O

Km (GmMSRB4): 1450 µM
Km (GmMSRB2 [2]): 2090 µM
Molecule: Free L-MetO

B1: GmMSRB4 (Glycine max) (protein)
chain: AMAAPGSLRKSEEEWRAILSPEQFRILRQKGTEFPGTGEYDKFYEEGVYNCAGCGTPLYRSITKFNSGCGWPAFYEGIPGAINRNPDPDGMRTEITCAACGGHLGHVFKGEGFPTPTNERHCVNSISLKFAPANSYS
notes: without predicted N-terminal chloroplast signal peptide (predicted TP length 67), pET21b His-tag, E. coli BL21(DE3), purified
Km [3]: 49 ± 6 µM
kcat [3]: 0.24 ± 0.01 s⁻¹
kcat/Km [3]: 5000 M⁻¹ s⁻¹

B2: GmMSRB2 (Glycine max) (protein)
chain: MAAPTPIQKTEEEWKVILSPEQFRILRQKGTELKGTGEYNKFYEEGIYNCAGCGTPLYKSSTKFDSGCGWPAFFEGFPGAIDRSPDPDGRRTEITCAACGGHLGHVFKGEGFKTPTDERHCVNSISVKFVPGNASSSI
notes: full-length, pDEST17 His-tag, E. coli BL21(DE3), purified; cytosolic (no signal peptide predicted)
Km [4]: 49 ± 5 µM
kcat [4]: 2.04 ± 0.06 s⁻¹
kcat/Km [4]: 42000 M⁻¹ s⁻¹
